Experimental data as given in patent publication US20150218251A1 (NATIONAL CHENG KUNG UNIVERSITY, published 2015).
Like-named read-outs stand apart in the source and are kept apart here.

Tests used:
integrin αIIbβ3 [1] = target: T1, integrin αIIbβ3 (UniProt P08514 32-1039; P05106 27-788); test: cell adhesion inhibition assay (Table 4)
T1 construct: whole, on cells
Experimental: (§1) Briefly, 96-well Immulon-2 microtiter plates (Costar, Corning, N.Y.) were coated with 100 μl of phosphate-buffered saline (PBS: 10 mM phosphate buffer, 0.15M NaCl, pH 7.4) containing substrates at a concentration of 50-500 nM, and incubated overnight at 4° C. […] Non-specific protein binding sites were blocked by incubating each well with 200 μl of heat-denatured 1% bovine serum albumin (BSA, Calbiochem) at room temperature (25° C.) for 1.5 hr. Afterwards, the blocking heat-denatured BSA was discarded and each well was washed twice with 200 μl of PBS.
(§2) Chinese hamster ovary (CHO) cells expressing αvβ3 (CHO-αvβ3) and α5β1 (CHO-α5β1) integrins were maintained in 100 μl of Dulbecco's Modified Eagle's Medium (DMEM) medium. Both CHO-αvβ3 and CHO-α5β1 were kind gifts of Dr. Y. Takada (Scripps Research Institute) established by stable transfection with a neomycin-resistant gene. CHO cells growing in log phase were detached by trypsinization and used in the assay at 3×10⁵ cells/ml. FNIII 9-10, FNIII 10 and variants thereof were added to the cultured cells at the concentrations of 0.001-500 μM and incubated at 37° C. in 5% CO₂ for 15 minutes. The treated cells were then added into the coated plate and incubated at 37° C. in 5% CO₂ for 1 hour. The incubation solution was then discarded and non-adhered cells were removed by washing twice with 200 μl PBS.
(§3) Bound cells were quantified by crystal violet staining. Briefly, the well was fixed with 100 μl of 10% formalin for 10 minutes and dried. Fifty microliters of 0.05% crystal violet were then added into the well at room temperature for 20 minutes. Each well was washed with 200 μl of distilled water four times and dried. Colorization was carried out by adding 150 μl of colorizing solution (50% alcohol and 0.1% acetic acid). The resulting absorbance was read at 600 nm and the readings were correlated with the number of adhering cells.

integrin αIIbβ3 [2] = target: T1, integrin αIIbβ3; test: cell-based or functional assay
integrin α5β1 [3] = target: T2, integrin α5β1 (UniProt P08648 42-1049; P05556 21-798); test: cell-based or functional assay
T2 sequence (P08648 42-1049, chain 1 of 2): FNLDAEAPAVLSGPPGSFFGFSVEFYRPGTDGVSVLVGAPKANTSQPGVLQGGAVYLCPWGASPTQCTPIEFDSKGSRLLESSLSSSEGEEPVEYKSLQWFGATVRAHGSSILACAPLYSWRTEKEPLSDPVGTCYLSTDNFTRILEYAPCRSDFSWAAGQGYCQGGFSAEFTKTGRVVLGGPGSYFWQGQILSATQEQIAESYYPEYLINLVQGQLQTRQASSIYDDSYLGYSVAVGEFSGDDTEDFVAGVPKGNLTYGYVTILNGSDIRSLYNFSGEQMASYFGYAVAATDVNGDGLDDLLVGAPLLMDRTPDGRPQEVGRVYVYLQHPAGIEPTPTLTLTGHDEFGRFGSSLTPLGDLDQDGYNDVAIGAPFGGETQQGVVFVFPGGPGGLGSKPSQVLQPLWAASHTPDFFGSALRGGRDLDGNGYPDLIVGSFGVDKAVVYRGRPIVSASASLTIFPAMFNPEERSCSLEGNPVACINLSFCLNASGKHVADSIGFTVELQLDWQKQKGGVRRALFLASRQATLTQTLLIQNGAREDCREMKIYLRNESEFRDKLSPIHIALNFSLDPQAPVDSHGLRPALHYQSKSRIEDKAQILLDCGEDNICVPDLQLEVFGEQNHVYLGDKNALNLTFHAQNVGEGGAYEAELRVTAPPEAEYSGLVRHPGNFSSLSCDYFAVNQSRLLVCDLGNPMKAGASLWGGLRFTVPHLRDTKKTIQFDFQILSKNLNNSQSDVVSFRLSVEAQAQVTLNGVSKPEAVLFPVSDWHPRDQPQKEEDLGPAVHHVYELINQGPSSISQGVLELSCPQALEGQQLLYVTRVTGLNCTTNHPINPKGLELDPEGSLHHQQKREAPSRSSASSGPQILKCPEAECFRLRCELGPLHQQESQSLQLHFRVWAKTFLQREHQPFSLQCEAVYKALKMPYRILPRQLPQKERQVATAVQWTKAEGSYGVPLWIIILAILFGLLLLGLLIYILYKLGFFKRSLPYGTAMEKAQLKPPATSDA
T2 sequence (P05556 21-798, chain 2 of 2): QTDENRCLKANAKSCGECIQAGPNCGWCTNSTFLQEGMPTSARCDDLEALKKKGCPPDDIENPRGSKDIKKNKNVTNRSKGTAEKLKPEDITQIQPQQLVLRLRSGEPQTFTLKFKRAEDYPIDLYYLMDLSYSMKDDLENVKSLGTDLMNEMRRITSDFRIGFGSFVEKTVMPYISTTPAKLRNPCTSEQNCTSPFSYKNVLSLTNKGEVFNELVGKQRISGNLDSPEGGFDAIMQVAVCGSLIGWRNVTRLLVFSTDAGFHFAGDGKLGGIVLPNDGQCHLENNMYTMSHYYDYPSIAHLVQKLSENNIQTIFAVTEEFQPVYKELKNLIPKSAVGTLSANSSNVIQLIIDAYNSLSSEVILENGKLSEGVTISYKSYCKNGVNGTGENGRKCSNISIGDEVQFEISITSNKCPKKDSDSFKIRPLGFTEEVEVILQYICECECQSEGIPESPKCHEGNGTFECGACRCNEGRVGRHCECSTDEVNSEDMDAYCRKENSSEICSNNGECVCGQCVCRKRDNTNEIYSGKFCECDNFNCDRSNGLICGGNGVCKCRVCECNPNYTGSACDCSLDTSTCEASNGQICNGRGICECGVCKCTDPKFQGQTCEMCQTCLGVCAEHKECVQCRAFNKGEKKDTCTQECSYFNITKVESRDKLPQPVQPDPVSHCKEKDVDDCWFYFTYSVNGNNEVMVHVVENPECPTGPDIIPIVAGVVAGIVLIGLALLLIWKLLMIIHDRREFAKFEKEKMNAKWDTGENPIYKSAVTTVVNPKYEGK

integrin αvβ3 [4] = target: T3, integrin αvβ3 (UniProt P06756 31-1048; P05106 27-788); test: cell-based or functional assay
T3 sequence (P06756 31-1048, chain 1 of 2): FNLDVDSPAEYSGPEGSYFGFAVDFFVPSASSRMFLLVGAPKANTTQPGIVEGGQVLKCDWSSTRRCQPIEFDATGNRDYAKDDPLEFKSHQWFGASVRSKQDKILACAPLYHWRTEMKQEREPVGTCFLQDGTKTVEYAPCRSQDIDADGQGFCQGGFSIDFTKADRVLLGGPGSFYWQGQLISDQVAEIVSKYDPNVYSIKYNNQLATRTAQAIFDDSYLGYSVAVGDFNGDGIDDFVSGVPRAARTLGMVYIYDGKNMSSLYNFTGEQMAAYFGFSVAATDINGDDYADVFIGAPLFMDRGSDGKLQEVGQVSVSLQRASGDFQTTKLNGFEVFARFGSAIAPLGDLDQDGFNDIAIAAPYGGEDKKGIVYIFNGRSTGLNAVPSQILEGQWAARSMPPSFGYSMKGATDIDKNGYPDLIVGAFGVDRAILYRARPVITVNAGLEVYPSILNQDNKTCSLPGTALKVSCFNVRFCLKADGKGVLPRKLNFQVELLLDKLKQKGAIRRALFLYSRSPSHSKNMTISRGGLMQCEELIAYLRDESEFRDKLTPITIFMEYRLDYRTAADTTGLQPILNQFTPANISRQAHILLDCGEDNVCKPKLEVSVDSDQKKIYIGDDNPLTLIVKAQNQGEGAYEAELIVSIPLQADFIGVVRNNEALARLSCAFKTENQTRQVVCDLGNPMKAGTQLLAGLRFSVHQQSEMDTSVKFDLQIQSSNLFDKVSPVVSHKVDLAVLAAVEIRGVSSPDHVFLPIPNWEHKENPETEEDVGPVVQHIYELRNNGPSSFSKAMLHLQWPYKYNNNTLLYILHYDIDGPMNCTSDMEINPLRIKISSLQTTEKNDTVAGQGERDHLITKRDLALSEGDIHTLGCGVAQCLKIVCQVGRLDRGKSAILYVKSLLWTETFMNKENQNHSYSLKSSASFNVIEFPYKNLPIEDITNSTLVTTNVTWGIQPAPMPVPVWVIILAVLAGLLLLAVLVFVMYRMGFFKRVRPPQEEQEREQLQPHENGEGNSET
T3 sequence (P05106 27-788, chain 2 of 2): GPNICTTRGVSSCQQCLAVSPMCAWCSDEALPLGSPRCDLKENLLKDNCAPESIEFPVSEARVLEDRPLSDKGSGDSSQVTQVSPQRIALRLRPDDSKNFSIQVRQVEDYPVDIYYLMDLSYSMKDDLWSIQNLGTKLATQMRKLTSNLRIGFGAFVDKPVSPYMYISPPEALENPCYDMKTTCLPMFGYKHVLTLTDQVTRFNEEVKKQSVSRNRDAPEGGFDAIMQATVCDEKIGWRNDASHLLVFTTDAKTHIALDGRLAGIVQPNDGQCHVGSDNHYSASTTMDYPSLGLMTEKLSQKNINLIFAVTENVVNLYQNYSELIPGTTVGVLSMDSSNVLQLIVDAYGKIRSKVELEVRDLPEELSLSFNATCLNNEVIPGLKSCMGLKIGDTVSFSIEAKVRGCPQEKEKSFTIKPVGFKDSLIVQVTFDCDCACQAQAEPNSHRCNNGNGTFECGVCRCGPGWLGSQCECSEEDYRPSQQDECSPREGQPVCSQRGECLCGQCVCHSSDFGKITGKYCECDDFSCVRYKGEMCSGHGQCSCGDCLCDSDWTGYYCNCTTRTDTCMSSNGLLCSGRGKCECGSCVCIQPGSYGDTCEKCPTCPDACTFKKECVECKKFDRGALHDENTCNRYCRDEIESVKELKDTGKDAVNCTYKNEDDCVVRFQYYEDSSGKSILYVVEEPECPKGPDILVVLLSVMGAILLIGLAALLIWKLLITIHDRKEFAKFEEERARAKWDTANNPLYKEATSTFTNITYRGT

integrin αvβ3 [5] = target: T3, integrin αvβ3; test: cell adhesion inhibition assay (Table 4)
Experimental: as §1, §2, §3

integrin αIIbβ3 [6] = target: T1, integrin αIIbβ3; test: cell adhesion inhibition assay (Table 5)
Experimental: as §1
(§4) Chinese hamster ovary (CHO) cells expressing αvβ3 (CHO-αvβ3) and α5β1 (CHO-α5β1) integrins were maintained in 100 μl of Dulbecco's Modified Eagle's Medium (DMEM) medium. Both CHO-αvβ3 and CHO-α5β1 were kind gifts of Dr. Y. Takada (Scripps Research Institute) established by stable transfection with a neomycin-resistant gene. CHO cells growing in log phase were detached by trypsinization and used in the assay at 3×10⁵ cells/ml. FNIII 9-10, FNIII 10 and variants thereof were added to the cultured cells at the concentrations of 0.001-500 μM and incubated at 37° C. in 5% CO₂ for 15 minutes. […]
(§5) Bound cells were quantified by crystal violet staining. […] The resulting absorbance was read at 600 nm and the readings were correlated with the number of adhering cells.

integrin αvβ3 [7] = target: T3, integrin αvβ3; test: cell adhesion inhibition assay (Table 5)
Experimental: as §1, §4, §5

integrin αIIbβ3 [8] = target: T1, integrin αIIbβ3; test: cell-based or functional assay; remark: listed apart in the source
integrin α5β1 [9] = target: T2, integrin α5β1; test: cell-based or functional assay; remark: listed apart in the source
integrin αvβ3 [10] = target: T3, integrin αvβ3; test: cell-based or functional assay; remark: listed apart in the source

T1 sequence (P08514 32-1039, chain 1 of 2): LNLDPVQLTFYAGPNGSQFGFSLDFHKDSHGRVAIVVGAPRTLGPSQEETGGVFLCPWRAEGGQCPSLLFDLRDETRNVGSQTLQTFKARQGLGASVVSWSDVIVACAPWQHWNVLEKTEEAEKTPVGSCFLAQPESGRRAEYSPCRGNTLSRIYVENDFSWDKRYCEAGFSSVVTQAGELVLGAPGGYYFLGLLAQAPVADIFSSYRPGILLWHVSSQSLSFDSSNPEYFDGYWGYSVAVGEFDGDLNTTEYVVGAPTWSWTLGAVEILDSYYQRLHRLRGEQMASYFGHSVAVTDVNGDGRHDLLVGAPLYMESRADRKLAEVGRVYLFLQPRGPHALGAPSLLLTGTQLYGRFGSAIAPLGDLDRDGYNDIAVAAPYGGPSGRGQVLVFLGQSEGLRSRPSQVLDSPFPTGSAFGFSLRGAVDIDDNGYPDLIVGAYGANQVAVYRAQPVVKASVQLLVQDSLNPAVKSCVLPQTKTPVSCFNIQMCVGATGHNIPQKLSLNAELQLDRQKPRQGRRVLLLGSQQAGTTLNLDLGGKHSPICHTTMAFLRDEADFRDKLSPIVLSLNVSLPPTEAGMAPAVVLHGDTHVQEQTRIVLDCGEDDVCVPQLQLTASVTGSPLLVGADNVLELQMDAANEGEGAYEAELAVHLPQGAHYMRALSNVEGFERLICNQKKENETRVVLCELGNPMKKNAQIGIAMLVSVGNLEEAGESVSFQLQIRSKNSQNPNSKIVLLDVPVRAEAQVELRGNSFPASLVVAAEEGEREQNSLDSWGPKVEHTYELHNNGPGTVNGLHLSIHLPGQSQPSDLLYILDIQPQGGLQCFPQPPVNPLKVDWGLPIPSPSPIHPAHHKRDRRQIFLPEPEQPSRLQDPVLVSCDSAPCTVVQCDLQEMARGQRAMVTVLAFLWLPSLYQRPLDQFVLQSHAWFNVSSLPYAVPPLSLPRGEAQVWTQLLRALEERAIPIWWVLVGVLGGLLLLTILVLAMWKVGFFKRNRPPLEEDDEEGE
T1 sequence (P05106 27-788, chain 2 of 2): as the sequence (P05106 27-788, chain 2 of 2) above

Row | Binder | binding result (integrin αIIbβ3 [1]) | IC50, cell adhesion assay (integrin αIIbβ3 [2]) | IC50, inhibition of ADP-induced platelet aggregation (integrin αIIbβ3 [2]) | percentage of inhibition, cell adhesion assay (integrin αIIbβ3 [2]) | IC50, cell adhesion assay (integrin α5β1 [3]) | percentage of inhibition, cell adhesion assay (integrin α5β1 [3]) | IC50, cell adhesion assay (integrin αvβ3 [4]) | percentage of inhibition, ADP-induced platelet aggregation (integrin αIIbβ3 [2]) | fold increase of binding affinity against SEQ ID NO:48 (integrin αvβ3 [5]) | binding result (integrin αIIbβ3 [6]) | binding result (integrin αvβ3 [7]) | IC50, cell adhesion assay (integrin αIIbβ3 [8]) | IC50, inhibition of ADP-induced platelet aggregation (integrin αIIbβ3 [8]) | percentage of inhibition, cell adhesion assay (integrin αIIbβ3 [8]) | IC50, cell adhesion assay (integrin α5β1 [9]) | IC50, cell adhesion assay (integrin αvβ3 [10]) | percentage of inhibition, cell adhesion assay (integrin αvβ3 [10])
1 | Wild type FNIII 10 (SEQ ID NO: 2, …) (ligand, also called FNIII 10 wild type; human fibronectin type III domain module 10) not shown | no binding (tested: >9180 nM) | > 9.18 µM | ~45 µM | 0% | > 4.59 µM | 39% | 4.58 µM | – | – | – | – | – | – | – | – | – | –
2 | FNIII 10 variant (SEQ ID NO: 48, VTPRGDMPDSSK) (designed binder, also called FNIII 10 (PRGDMPD) protein; FNIII 10 PRGDMPD variant) HHHHHHVSDVPRDLEVVAATPTSLLISWDAPAVTVRYYRITYGETGGNSPVQEFTVPGSKSTATISGLKPGVDYTITVYAVTPRGDMPDSSKPISINYRT | no binding (tested: >9073 nM) | > 9.07 µM | > 22.2 µM | 0% | > 6.8 µM | 31.7% | 0.645 µM | 4% | – | – | – | – | – | – | – | – | –
3 | FNIII 10 C-X7-C (SEQ ID NO: 8, VCPRGDWNECSK) (designed binder, Engineered intradomain disulfide bond Cys1491-Cys1499; exact N-terminus uncertain) HHHHHHVSDVPRDLEVVAATPTSLLISWDAPAVTVRYYRITYGETGGNSPVQEFTVPGSKSTATISGLKPGVDYTITVYAVCPRGDWNECSKPISINYRT | no binding (tested: >4494 nM) | > 4.49 µM | ~10 µM | 0% | > 4.49 µM | 48% | 0.418 µM | – | – | – | – | – | – | – | – | – | –
4 | FNIII 10 C-X7-C (SEQ ID NO: 6, VCPRGDMPDCSK) (designed binder) HHHHHHVSDVPRDLEVVAATPTSLLISWDAPAVTVRYYRITYGETGGNSPVQEFTVPGSKSTATISGLKPGVDYTITVYAVCPRGDMPDCSKPISINYRT | no binding (tested: >62124 nM) | > 62.1 µM | ~62 µM | 19% | > 73.2 µM | 42% | 0.093 µM | – | 7 fold | – | – | – | – | – | – | – | –
5 | FNIII 10 C-X7-C (SEQ ID NO: 10, VCARGDNPDCSK) (designed binder) HHHHHHVSDVPRDLEVVAATPTSLLISWDAPAVTVRYYRITYGETGGNSPVQEFTVPGSKSTATISGLKPGVDYTITVYAVCARGDNPDCSKPISINYRT | no binding (tested: >4546 nM) | > 4.55 µM | > 25.5 µM | 0% | > 4.55 µM | 0% | 0.432 µM | 2% | – | – | – | – | – | – | – | – | –
6 | Wild type FNIII 9-10 (SEQ ID NO: 4) (ligand, exact N-terminus uncertain; also called Wild-type human FN III 9-10; Control) not shown | – | – | – | – | – | – | – | – | – | no binding (tested: >4798 nM) | no binding (tested: >3119 nM) | > 4.8 µM | ~20 µM | 0% | 0.245 µM | > 3.12 µM | 33.2%
7 | Control FNIII 10 mutant (SEQ ID NO: 50, VTPRGDWNEGSK) (designed binder, exact N-terminus uncertain; also called FNIII 10 variant) HHHHHHVSDVPRDLEVVAATPTSLLISWDAPAVTVRYYRITYGETGGNSPVQEFTVPGSKSTATISGLKPGVDYTITVYAVTPRGDWNEGSKPISINYRT | no binding (tested: >9027 nM) | > 9.03 µM | > 6.45 µM | 0% | > 4.51 µM | 32.5% | 0.908 µM | 14% | – | – | – | – | – | – | – | – | –
